Experiments:
[1] = target: T1, human CD3 on the cell surface (Jurkat cells, expanded human T cells, Jurkat-Lucia NFAT cells, human PBMC) (human, UniProt P07766 23-207; P04234 22-171; P09693 23-182); assay: cell-based or functional assay
monkey CD3ε/δ-His = target: T2, monkey CD3ε/δ-His (monkey, UniProt Q95LI5 22-117; Q95LI8 22-105); assay: ELISA, coated antigen, hybridoma screening
T2 construct: Bought recombinant heterodimer with His tag
Excerpt: (§1) The binding of the supernatant of the hybridoma to human CD3ε/δ-His (purchased from Sino Biological, Inc. (China), catalog number: CT038-H2508H) and monkey CD3ε/δ-His (purchased from Acrobiosystems, CDD-C52W4) was detected by ELISA for the screening of the supernatant of the hybridoma (see Example 10.1 below). The binding of the supernatant of the ELISA positive hybridoma clone to Jurkat cells and monkey T cells was detected by flow cytometry, and the activation of Jurkat-Lucia NFAT cells (purchased from InvivoGen, catalog number: jktl-nfat) by the supernatant of the hybridoma was detected by a reporter gene system (see Example 2.1, Example 2.4 and Example 7.1 below for the method).
(§2) To detect the binding activity of the humanized antibodies to CD3 protein, CD3 protein was diluted with PBS to the final concentration of […], then added to a 96-well ELISA plate at 50 μL/well, and the plate was sealed with a plastic film, and incubated overnight at 4° C. On the next day, the plate was washed 2 times with PBS, and a blocking solution [PBS+2% (v/v) BSA] was added for blocking at room temperature for 2 h. The blocking solution was poured off, and the antibody (initial concentration of 100 nM, and gradient dilution at 1:10) or a negative control antibody was added at 50 µl/well. After incubation at 37° C. for 2 h, the plate was washed 3 times with PBS. […] TMB substrate was added at 50 μl/well, and incubated at room temperature for 10 min, and then a stop solution (1.0 N HCl) was added at 50 μl/well. The OD450 nm values were read by an ELISA microplate reader (Multimode Plate Reader, EnSight, purchased from Perkin Elmer).

human CD3ε/δ-His = target: T3, human CD3ε/δ-His (human, UniProt P07766 23-126; P04234 22-105); assay: ELISA, coated antigen, hybridoma screening
T3 construct: Bought recombinant heterodimer with His tag; also called human CD3ε/δ protein
Excerpt: as §1, §2

[2] = target: T1, human CD3 on the cell surface (Jurkat …); assay: FACS, Jurkat cells, hybridoma screening
Method: (§3) Suspension cells Jurkat cells (purchased from Cell bank of Chinese Academy of Sciences) were scale-up cultured in T-175 cell culture flasks to the logarithmic growth phase, the supernatant of the medium was discarded by centrifugation, and the cell pellet was washed 2 times with PBS. After counting the cells in the previous step, the cell pellet was resuspended with [PBS+2% (w/v) FBS] blocking solution to 4×10⁶ cells/ml, and added to a 96-well FACS reaction plate at 50 μl/well, the supernatant was removed by centrifugation, detection antibodies (initial concentration of […], gradient dilution at 1:5) and an IgG negative control were added at 100 μl/well, the cells were uniformly mixed, and incubated on ice for 1 h. The cells were centrifuged and washed 3 times with a PBS buffer. […] The cells were centrifuged and washed 5 times with a PBS buffer, and FACS (FACS Canto II, purchased from BD Company) was used for detection and result analysis. Data analysis was performed by software (CellQuest) to obtain the mean fluorescence intensity (MFI) of the cells. And then software (GraphPad Prism8) was used for analysis, data fitting, and EC50 value calculation.
as §1

[3] = target: T4, cynomolgus monkey CD3 on the surface of expanded monkey T cells (cynomolgus monkey, UniProt Q95LI5 22-198; Q95LI8 22-171; Q95LI7 23-181); assay: FACS, monkey T cells, hybridoma screening
T4 construct: whole, on cells; Endogenous CD3 within the TCR-CD3 complex on T cells expanded from cynomolgus monkey PBMC
Method: as §3, §1

T2 sequence (Q95LI5 22-117, stated change not applied, form in doubt, chain 1 of 2): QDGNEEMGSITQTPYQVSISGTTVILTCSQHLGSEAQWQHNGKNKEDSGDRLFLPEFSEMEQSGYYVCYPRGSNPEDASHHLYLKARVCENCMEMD
T2 sequence (Q95LI8 22-105, stated change not applied, form in doubt, chain 2 of 2): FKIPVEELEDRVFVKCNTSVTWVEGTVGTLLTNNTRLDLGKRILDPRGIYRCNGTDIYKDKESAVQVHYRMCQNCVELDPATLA
T1 sequence (P07766 23-207, chain 1 of 3): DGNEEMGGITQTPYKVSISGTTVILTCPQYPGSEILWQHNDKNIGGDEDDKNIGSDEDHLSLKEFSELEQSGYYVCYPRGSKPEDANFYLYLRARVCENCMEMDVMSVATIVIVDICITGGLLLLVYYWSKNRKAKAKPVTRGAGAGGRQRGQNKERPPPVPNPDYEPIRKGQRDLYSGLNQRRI
T1 sequence (P04234 22-171, chain 2 of 3): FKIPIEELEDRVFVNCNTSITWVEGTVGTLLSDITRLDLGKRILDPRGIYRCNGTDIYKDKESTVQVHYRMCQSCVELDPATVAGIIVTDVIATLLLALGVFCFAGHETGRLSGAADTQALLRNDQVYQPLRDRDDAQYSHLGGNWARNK
T1 sequence (P09693 23-182, chain 3 of 3): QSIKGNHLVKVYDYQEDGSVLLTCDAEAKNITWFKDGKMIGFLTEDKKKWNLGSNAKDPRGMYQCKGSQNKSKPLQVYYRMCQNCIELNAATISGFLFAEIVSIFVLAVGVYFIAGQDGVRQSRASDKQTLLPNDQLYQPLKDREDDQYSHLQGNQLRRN
T3 sequence (P07766 23-126, stated change not applied, form in doubt, chain 1 of 2): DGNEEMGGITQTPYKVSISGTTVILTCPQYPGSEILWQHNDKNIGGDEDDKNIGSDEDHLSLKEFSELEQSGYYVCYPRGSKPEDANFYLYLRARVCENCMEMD
T3 sequence (P04234 22-105, stated change not applied, form in doubt, chain 2 of 2): as the sequence (Q95LI8 22-105, stated change not applied, form in doubt, chain 2 of 2) above, with V5I, K15N, V20I, T32S, N33D, N34I, A64T, N74S, L83V counted along it
T4 sequence (Q95LI5 22-198, chain 1 of 3): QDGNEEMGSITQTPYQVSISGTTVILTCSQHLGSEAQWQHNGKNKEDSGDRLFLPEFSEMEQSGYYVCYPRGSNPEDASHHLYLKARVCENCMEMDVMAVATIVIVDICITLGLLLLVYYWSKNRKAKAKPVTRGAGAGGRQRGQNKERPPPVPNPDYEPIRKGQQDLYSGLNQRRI
T4 sequence (Q95LI8 22-171, chain 2 of 3): as the sequence (P04234 22-171, chain 2 of 3) above, with I5V, N15K, I20V, S32T, D33N, I34N, T64A, S74N, V83L, H141R counted along it
T4 sequence (Q95LI7 23-181, chain 3 of 3): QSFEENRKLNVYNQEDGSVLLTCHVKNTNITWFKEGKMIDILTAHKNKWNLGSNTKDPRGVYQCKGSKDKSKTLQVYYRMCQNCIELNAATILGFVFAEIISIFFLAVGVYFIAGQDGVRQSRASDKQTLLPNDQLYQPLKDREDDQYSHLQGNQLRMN

B1: 1-22.6 murine hybridoma antibody (supernatant) (antibody, V domains shown)
VH: QIPLVQSGPELKKPGETVKISCKTSGYTFTSYGMSWVKQAPGKGLKWMGWINTYSGVPTYADDFKGRFVFSLDTSASTAFLQINNLKNEDTATYFCARLKNNPFCWGQGSTLTVFS
VL: DVLMTQSPLSLPVRLGDQASISCRSSQLILHSNGNTYLEWYLQKPGQSPKLLIYKVSNRFSGVPDRFSGSGSGTDFTLKISRVEAEDLGVYYCFQGSHFPWTFGGGTKLEIK
notes: Tested as hybridoma supernatant
Reporter assay (RLU), Jurkat-Lucia NFAT, supernatant diluted by 4 times [1]: 16000 RLU | Reporter assay (RLU), Jurkat-Lucia NFAT, supernatant diluted by 20 times [1]: 8890 RLU | OD450 (monkey CD3ε/δ-His): 3.08 OD450 | OD450 (human CD3ε/δ-His): 2.17 OD450 | Mean fluorescence intensity [2]: 767 MFI | Mean fluorescence intensity [3]: 20800 MFI

B2: 5-40.21 murine hybridoma antibody (supernatant) (antibody, V domains shown)
VH: QVQLQQPGSELVRPGASVKLSCKASGYTFTSYWMHWVKQRPGQGLEWIGNTYPGSGSTNYDEKFKSKATLTVDSSSSTAYMQLSSLTSEDSAVYYCTRDRYGVYYFDYWGQGTTLTVSS
VL: DIVMSQSPSSLAVSAGEKVTMSCKSSQSLLNSRTRKNYLAWYQQKPGQSPKLLIYWASTRESGVPDRFSGSGSGTDFTLTISSVQAEDLAVYYCTQSYNLRTFGGGTKLEIK
notes: as for B1
Reporter assay (RLU), Jurkat-Lucia NFAT, supernatant diluted by 4 times [1]: 18900 RLU | Reporter assay (RLU), Jurkat-Lucia NFAT, supernatant diluted by 20 times [1]: 15600 RLU | OD450 (monkey CD3ε/δ-His): 1.82 OD450 | OD450 (human CD3ε/δ-His): 2.15 OD450 | Mean fluorescence intensity [2]: 6910 MFI | Mean fluorescence intensity [3]: 15200 MFI

B3: 6-35.22 murine hybridoma antibody (supernatant) (antibody, V domains shown)
VH: EVKLVESGGGLVQPGASLSLSCAASGFTFTDYYMSWVRQPPGKALEWLAMSRNKAKGHTIEYSSSVKGRFTISRDNSQSILYLQMNALRAEDSATYYCARDTYESYDGYFDVWGAGTTVIVSS
VL: DIVMSQSPSSLAVSAGETVTMSCKSSQSLFNSRSRKNYLAWYQQKPGQTPKLLIYWASIRESGVPDRFTGSGSGTDFTLTISSVQAEDLAVYYCKQSYYLYTFGSGTKLEIK
notes: as for B1
Reporter assay (RLU), Jurkat-Lucia NFAT, supernatant diluted by 4 times [1]: 29000 RLU | Reporter assay (RLU), Jurkat-Lucia NFAT, supernatant diluted by 20 times [1]: 34100 RLU | OD450 (monkey CD3ε/δ-His): 1.74 OD450 | OD450 (human CD3ε/δ-His): 2.01 OD450 | Mean fluorescence intensity [2]: 7050 MFI | Mean fluorescence intensity [3]: 32600 MFI

B4: 6-44.5 murine hybridoma antibody (supernatant) (antibody, V domains shown)
VH: EVQLQQSGPELVKPGASVKMSCKASGHTFTSHIMHWVKQKPGQGLEWIGYINPNNDRTEYSEKFKGKATLTSDKSSSTAYMELSSLTSEDSAVYYCAGEAYYSNSLYAMDYWGQGTSVTVSS
VL: DIVMSQSPSSLAVSAGEKVTMSCKSSQSLFNSRTRKNYLAWYQQKPGQSPELLIYWASTRESGVPVRFTGSGSGTDFTLTISSVQAEDLAVYYCKQSYYLRTFGGGTKLEVK
notes: as for B1
Reporter assay (RLU), Jurkat-Lucia NFAT, supernatant diluted by 4 times [1]: 26200 RLU | Reporter assay (RLU), Jurkat-Lucia NFAT, supernatant diluted by 20 times [1]: 21400 RLU | OD450 (monkey CD3ε/δ-His): 1.94 OD450 | OD450 (human CD3ε/δ-His): 2.06 OD450 | Mean fluorescence intensity [2]: 7240 MFI | Mean fluorescence intensity [3]: 36200 MFI

B5: 7-35.6 murine hybridoma antibody (supernatant) (antibody, V domains shown)
VH: EVQLVESGGGLVQPKGSLKLSCAASGFTFNTYAMNWVRQAPGKGLEWVGRIRSKINNYATYYGDSVKDRFTISRDDSQSMFYLQMNNLKTEDTAMYYCVIHENYGSISWFAYWGQGTLVTVSA
VL: QAVVTQESTLTTSPGETVTLTCRSSTGAVTTSNYANWVQEKPDHLFTGLIGGTNNRAPGVPARFSGSLIGDKAALTITGAQTEDEAIYFCALWYSNHWVFGGGTKLTVL
notes: as for B1
Reporter assay (RLU), Jurkat-Lucia NFAT, supernatant diluted by 4 times [1]: 27400 RLU | Reporter assay (RLU), Jurkat-Lucia NFAT, supernatant diluted by 20 times [1]: 14800 RLU | OD450 (monkey CD3ε/δ-His): 1.46 OD450 | OD450 (human CD3ε/δ-His): 1.56 OD450 | Mean fluorescence intensity [2]: 284 MFI | Mean fluorescence intensity [3]: 1650 MFI

B6: 8-18.1 murine hybridoma antibody (supernatant) (antibody, V domains shown)
VH: QVQLQQSGAELARPGASVKMSCKASGYIFTMNTMHWVKQRPGQGLEWIGYINPYSGYTKYNQIFKDKATLTADKSSSTAYMRLSSLTSEDSAVYYCLRGGEGVWGQGTTLTVSS
VL: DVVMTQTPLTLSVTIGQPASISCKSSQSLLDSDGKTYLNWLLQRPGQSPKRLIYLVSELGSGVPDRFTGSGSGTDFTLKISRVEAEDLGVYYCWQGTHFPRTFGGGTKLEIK
notes: as for B1
Reporter assay (RLU), Jurkat-Lucia NFAT, supernatant diluted by 4 times [1]: 27000 RLU | Reporter assay (RLU), Jurkat-Lucia NFAT, supernatant diluted by 20 times [1]: 17800 RLU | OD450 (monkey CD3ε/δ-His): 2.14 OD450 | OD450 (human CD3ε/δ-His): 2.04 OD450 | Mean fluorescence intensity [2]: 895 MFI | Mean fluorescence intensity [3]: 3100 MFI

B7: 5-7.13 murine hybridoma antibody (supernatant) (antibody, V domains shown)
VH: QVQLQQPGTELVKPGASVKLSCKASGYTFTSYWVHWVKQRPGQGLEWIGNINPSDGVTNYNEKFKSRATLTVDKSSSTAYMQLSSLTSEDSAVYYCTRDAYGQYYFDDWGQGTTLTVSS
VL: DIVMSQSPSSLVVSAGEKVTMSCKSSQSLLNSRTRKNYLAWYQQKPGQSPKLLIYWASVRDSGVPDRFTGSGSGTDFTLTISNVQAEDLAVYYCIQSYYLRTFGGGTILEIK
notes: as for B1
Reporter assay (RLU), Jurkat-Lucia NFAT, supernatant diluted by 4 times [1]: 24500 RLU | Reporter assay (RLU), Jurkat-Lucia NFAT, supernatant diluted by 20 times [1]: 27800 RLU | OD450 (monkey CD3ε/δ-His): 2.09 OD450 | OD450 (human CD3ε/δ-His): 2.08 OD450 | Mean fluorescence intensity [2]: 8280 MFI | Mean fluorescence intensity [3]: 16300 MFI

Source: patent publication US20250136687A1 (SHANDONG SIMCERE BIOPHARMACEUTICAL, published 2025)
